Sequences and labels used below:
T1: Mcl-1, Q07820
T1 chain: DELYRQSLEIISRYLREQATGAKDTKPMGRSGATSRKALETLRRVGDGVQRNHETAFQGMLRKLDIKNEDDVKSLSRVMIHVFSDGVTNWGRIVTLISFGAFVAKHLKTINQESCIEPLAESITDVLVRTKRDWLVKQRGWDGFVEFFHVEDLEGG

B1: MST1R (peptide)
chain: RDPQGWVAGNDSARGDGAAGFTLPGF
B2: NEDD9 (peptide)
chain: SKFVILSAHKDVFIGDTLTRQVTAQD
B3: KIF13A (peptide)
chain: RIEMWISILELNELGEYAAVELHQAK
B4: HIRA (peptide)
chain: GLTWDPVGKYDASQADDRSLKVWRTL
B5: CPS1 (peptide)
chain: RRTSINVVRHLGIVLECNIQFALHPT
B6: CREBBP (peptide)
chain: TPSRSALSSELSLVGDTTGDTLEKFV
B7: ADCY8 (peptide)
chain: RLAHEHHCLRIKILLDCYYCVSGLPE
B8: STRN (peptide)
chain: LGLGELAGLTVANELDSLTYDIANNK
B9: PCM1 (peptide)
chain: DSLAKFAGRKLKDCLEDLLVEISEVL
B10: MAPK8IP3 (peptide)
chain: HPRRESQVRQDAWIGDGVWVSIRLDS
B11: BCAR1 (peptide)
chain: SKFVILSAHKLVFILDTLSRQAKAAD
B12: TEP1 (peptide)
chain: AALFLHAGCQLLTAGEDGKVQVWSGS
B13: TIGD7 (peptide)
chain: SAGVPVRGVELQAAAERFARCFGRTD
B14: ADCY8 (peptide)
chain: RLAHEHHCLRDKILGDCYYCVSGLPE
B15: DIRC2 (peptide)
chain: IVGGCVVGIAMARFLDFIRGMLKLIL
B16: RINT1 (peptide)
chain: LNAVNYISTVLADWADNVFFLQLQQA
B17: LIPE (peptide)
chain: CALLGSTGERICLAGDSAGGNLCFTV
B18: CPS1 (peptide)
chain: RRTSINVVRHLGIVGECNIQFALHPT
B19: SEH1L (peptide)
chain: RVSWNITGTVLASSLDDGCVRLWKAN
B20: CLTC (peptide)
chain: FRLAQMCGLHDVVHADELEELINYYQ
B21: CPS1 (peptide)
chain: HGTSSRIGSSDKSVGEVMAIGRTFEE
B22: BIRC6 (peptide)
chain: CGDLASLSIDIWTLGEEVDGRRLVVA
B23: SPAG9 (peptide)
chain: HPRKESQVRQLAWVLDGVWVSIRLDS
B24: KIF13A (peptide)
chain: NKSLTTLGLVDSSLADQAAGKGKSKF
B25: RRM1 (peptide)
chain: NKRHRPIGIGVQGLLDAFILMRYPFE
B26: KPNB1 (peptide)
chain: DHTDGVVACADGLIGDLCTAFGKDVL
B27: NCOR2 (peptide)
chain: QQMHHNAATAMAQRLDMLRGLSPRES
B28: CRTC1 (peptide)
chain: PSLSKELTSSDAGVGDVSFDSDSQFP
B29: STAG1 (peptide)
chain: AICIEEIGVWDKMYSDAFLNDSYLKY
B30: KIF13A (peptide)
chain: RIEMWISILELNELLEYAAVELHQAK
B31: RRM1 (peptide)
chain: NKRHRPIGIGVQGLADAFILMRYPFE
B32: PKD2L1 (peptide)
chain: NKTMTQLSSTDARCAKDILGFAVMFF
B33: SLC1A2 (peptide)
chain: IGFFIAFGIAMGKMLDQAKLMVDFFN
B34: PPM1F (peptide)
chain: CALIAGATLHVAWLLDSQVILVQQGQ
B35: ITPR3 (peptide)
chain: KKCQDMIMTELTNALDDVVVFYNDKA
B36: CIITA (peptide)
chain: PPDAHVLGKALEAAGQDFSLDLRSTG
B37: CDC42BPG (peptide)
chain: ELQAPATVQSLGLLLDRLCVGAAGGF

In the first test the target is Bcl-xL, Q07817. Briefly: peptide SPOT array, c-Myc-tagged receptor at 1 uM or 100 nM, anti-c-Myc-Cy3.
Sequence of Bcl-xL, Q07817 (Q07817 1-209): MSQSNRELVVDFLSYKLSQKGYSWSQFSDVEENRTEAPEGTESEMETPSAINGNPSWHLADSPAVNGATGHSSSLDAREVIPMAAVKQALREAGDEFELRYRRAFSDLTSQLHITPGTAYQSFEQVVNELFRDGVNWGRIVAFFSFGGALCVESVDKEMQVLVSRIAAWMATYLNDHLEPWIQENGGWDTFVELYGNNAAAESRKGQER
In turn, B1 showed an SPOT signal as a fraction of Bim BH3's signal on the same receptor and array of 0.01.
The same measure, in the same setting: the same measure for B2: 0.02; for B3: 0.02.
On the same count and under the same terms, the same measure for B4: 0.17; for B5: 0.14; for B6: 0.02.
The molecule B7 gave an SPOT signal as a fraction of Bim BH3's signal on the same receptor and array of 0.02.
Same read-out and setting: the same measure for B8: 0.02; for B9: 0.02; for B10: 0.02.
Same read-out and setting: the same measure for B11: 0.07; for B12: 0.02; for B13: 0.12.
Still for that read-out and setting: the figure for B14 is 0.02.
Take B15: the SPOT signal as a fraction of Bim BH3's signal on the same receptor and array came out at 0.29.
The molecule B16 came in with an SPOT signal as a fraction of Bim BH3's signal on the same receptor and array of 0.02.
The same measure, in the same setting: the same measure for B17: 0.01; for B18: 0.03; for B19: 0.18.
On the same count and under the same terms, the same measure for B20: 0.02.
Same read-out and setting: the figure for B21 is 0.02; for B22 it is 0.02; for B23 it is 0.02.
Molecule B24 displayed an SPOT signal as a fraction of Bim BH3's signal on the same receptor and array of 0.29.
On the same count and under the same terms, the same measure for B25: 0.04; for B26: 0.02.
Still for that read-out and setting: the same measure for B27: 0.13; for B28: 0.01; for B29: 0.05.
The same measure, in the same setting: the figure for B30 is 0.02; for B31 it is 0.04; for B32 it is 0.03.
With B33, the SPOT signal as a fraction of Bim BH3's signal on the same receptor and array turned out to be 0.03.
Take B34: the SPOT signal as a fraction of Bim BH3's signal on the same receptor and array amounted to 0.02.
Same read-out and setting: the same measure for B35: 0.02.
Still for that read-out and setting: the figure for B36 is 0.02; for B37 it is 0.01.

Another test has as its target T1, Mcl-1, Q07820. The description is as above.
Regarding B1, the SPOT signal as a fraction of Bim BH3's signal on the same receptor and array is 0.02.
On the same count and under the same terms, the same measure for B2: 0.02; for B3: 0.02; for B4: 0.23.
Consider B5, for which the SPOT signal as a fraction of Bim BH3's signal on the same receptor and array was found to be 0.1.
The same measure, in the same setting: the figure for B6 is 0.01; for B7 it is 0.03; for B8 it is 0.01.
Still for that read-out and setting: the same measure for B9: 0.02; for B10: 0.02; for B11: 0.02.
The same measure, in the same setting: the figure for B12 is 0.02.
On to B13, for which the SPOT signal as a fraction of Bim BH3's signal on the same receptor and array came out at 0.04.
Still for that read-out and setting: the same measure for B14: 0.01; for B15: 0.18; for B16: 0.03.
On the same count and under the same terms, the figure for B17 is 0.01; for B18 it is 0.02; for B19 it is 0.08.
Turning to B20, the SPOT signal as a fraction of Bim BH3's signal on the same receptor and array amounted to 0.02.
Still for that read-out and setting: the figure for B21 is 0.02; for B22 it is 0.02; for B23 it is 0.02.
Same read-out and setting: the figure for B24 is 0.19.
The same measure, in the same setting: the figure for B25 is 0.05.
B26 displayed an SPOT signal as a fraction of Bim BH3's signal on the same receptor and array of 0.01.
Same read-out and setting: the same measure for B27: 0.08; for B28: 0.01; for B29: 0.03.
Same read-out and setting: the figure for B30 is 0.03.
With B31, the SPOT signal as a fraction of Bim BH3's signal on the same receptor and array worked out at 0.04.
Still for that read-out and setting: the same measure for B32: 0.02; for B33: 0.03; for B34: 0.01.
Consider B35, for which the SPOT signal as a fraction of Bim BH3's signal on the same receptor and array turned out to be 0.02.
Same read-out and setting: the figure for B36 is 0.01.
Same read-out and setting: the same measure for B37: 0.01.

For the origin of these results see article PMC4072508, “Genome-Wide Prediction and Validation of Peptides That Bind Human Prosurvival Bcl-2 Proteins” (PLoS Computational Biology, 2014).
